Source: article PMC9283941, “Self-activating G protein α subunits engage seven-transmembrane regulator of G protein signaling (RGS) proteins and a Rho guanine nucleotide exchange factor effector in the amoeba Naegleria fowleri” (The Journal of Biological Chemistry, 2022)

Tests used:
[1] = target: Naegleria fowleri G protein α subunit Nf Gα2 (Naegleria fowleri); test: SPR; Proteon XPR36; ~5000 RU of His6-tagged Gα subunits immobilised on a nickel-NTA chip by covalent capture coupling; RGS domains injected as analyte at 20 μl/min; 50 mM Hepes pH 7.4, 150 mM NaCl, 0.05% NP-40 alternative, 50 μM EDTA, 1 mM MgCl2; Gα in the AMF state (100 μM GDP, 20 mM NaF, 30 μM AlCl3); equilibrium binding analysis
[2] = target: Naegleria fowleri G protein α subunit Nf Gα3 (Naegleria fowleri); test: as above
Nf Gα7 = target: T1, Nf Gα7 (Naegleria fowleri, UniProt A0A6I8WFP8); test: intrinsic tryptophan fluorescence (activation); type: binding; settings: 0.5 μM protein, 1 μM nucleotide, 10 mM MgCl2, pH 7.5, 20 °C
T1 construct: gene NF0037180; N-terminal TEV-cleavable His6 tag; E. coli
T1 sequence (A0A6I8WFP8 1-321): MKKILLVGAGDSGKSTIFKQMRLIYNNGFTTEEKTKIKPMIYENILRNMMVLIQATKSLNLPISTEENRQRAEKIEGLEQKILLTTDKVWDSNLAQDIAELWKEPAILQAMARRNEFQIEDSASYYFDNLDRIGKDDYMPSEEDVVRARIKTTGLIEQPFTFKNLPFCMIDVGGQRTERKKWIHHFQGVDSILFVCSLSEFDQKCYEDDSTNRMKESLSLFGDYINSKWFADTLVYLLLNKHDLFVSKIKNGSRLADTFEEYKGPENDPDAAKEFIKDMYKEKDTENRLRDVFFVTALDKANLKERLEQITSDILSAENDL

Nf Gα5 [3] = target: T2, Nf Gα5 (Naegleria fowleri, UniProt A0A6A5BQC6); test: intrinsic tryptophan fluorescence (activation); type: binding; settings: 0.5 μM protein, 1 μM nucleotide, 10 mM MgCl2, pH 7.5, 20 °C
T2 construct: gene FDP41_003899; N-terminal TEV-cleavable His6 tag; E. coli
T2 sequence (A0A6A5BQC6 57-394 limits assumed): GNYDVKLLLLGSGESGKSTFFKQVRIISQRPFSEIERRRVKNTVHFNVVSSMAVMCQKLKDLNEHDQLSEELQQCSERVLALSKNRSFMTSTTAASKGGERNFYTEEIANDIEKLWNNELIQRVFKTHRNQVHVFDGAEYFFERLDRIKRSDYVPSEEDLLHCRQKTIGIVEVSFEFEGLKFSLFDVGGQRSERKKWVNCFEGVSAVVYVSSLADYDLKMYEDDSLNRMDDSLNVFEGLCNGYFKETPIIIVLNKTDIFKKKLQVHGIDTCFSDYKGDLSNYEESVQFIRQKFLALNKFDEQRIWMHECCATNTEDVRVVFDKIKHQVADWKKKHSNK

Nf Gα5 [4] = target: T2, Nf Gα5; test: intrinsic tryptophan fluorescence (activation, return after hydrolysis); type: biochemical; settings: 0.5 μM protein, 1 μM nucleotide, 10 mM MgCl2, pH 7.5, 20 °C

Compound | Kd [1] [µM] | Kd [2] [µM] | intrinsic tryptophan fluorescence (activation) (Nf Gα7) | intrinsic tryptophan fluorescence (activation) (Nf Gα5 [3]) | intrinsic tryptophan fluorescence (activation, return after hydrolysis) (Nf Gα5 [4])
RGS domain of Naegleria fowleri Nf RGS-RhoGEF (domain or fragment) | 2.4 | 3.3 |  |  | 
Nc1nc2c(ncn2[C@@H]2O[C@H](COP(=O)(O)OP(=O)(O)NP(=O)(O)O)[C@@H](O)[C@H]2O)c(=O)[nH]1 [GppNHp] |  |  | achieved the active conformation in the presence of either GppNHp or GTP | achieved the active conformation in the presence of either GppNHp or GTP | 
RGS domain of Naegleria fowleri seven-transmembrane RGS protein Nf 7TM RGS2 (domain or fragment) | 0.63 | 0.55 |  |  | 
RGS domain of Naegleria fowleri seven-transmembrane RGS protein Nf 7TM RGS4 (domain or fragment) |  | 1.8 |  |  | 
Nc1nc2c(ncn2[C@@H]2O[C@H](COP(=O)(O)OP(=O)(O)OP(=O)(O)O)[C@@H](O)[C@H]2O)c(=O)[nH]1 [GTP] |  |  | achieved the active conformation in the presence of either GppNHp or GTP |  | returned slowly to near-baseline levels after multiple rounds of hydrolysis and exhaustion of available GTP
